Source: patent US20110263454A1, “Methods of Identifying Functional Characteristics of Promoters, Transcription Modifying Proteins and Transcription Modulating Agents” (Salk Institute for Biological Studies, priority 2008, published 2011)

B1: CTF3: COUP-TF3 (NR2F6), cDNA driver (protein, UniProt P10588 1-404, looked up)
Nuclear receptor subfamily 2 …: MAMVTGGWGGPGGDTNGVDKAGGYPRAAEDDSASPPGAASDAEPGDEERPGLQVDCVVCGDKSSGKHYGVFTCEGCKSFFKRSIRRNLSYTCRSNRDCQIDQHHRNQCQYCRLKKCFRVGMRKEAVQRGRIPHSLPGAVAASSGSPPGSALAAVASGGDLFPGQPVSELIAQLLRAEPYPAAAGRFGAGGGAAGAVLGIDNVCELAARLLFSTVEWARHAPFFPELPVADQVALLRLSWSELFVLNAAQAALPLHTAPLLAAAGLHAAPMAAERAVAFMDQVRAFQEQVDKLGRLQVDSAEYGCLKAIALFTPDACGLSDPAHVESLQEKAQVALTEYVRAQYPSQPQRFGRLLLRLPALRAVPASLISQLFFMRLVGKTPIETLIRDMLLSGSTFNWPYGSGQ
B2: hMR: Mineralocorticoid Receptor (NR3C2, MR), cDNA driver (protein, UniProt P08235 1-984, looked up)
Mineralocorticoid receptor: METKGYHSLPEGLDMERRWGQVSQAVERSSLGPTERTDENNYMEIVNVSCVSGAIPNNSTQGSSKEKQELLPCLQQDNNRPGILTSDIKTELESKELSATVAESMGLYMDSVRDADYSYEQQNQQGSMSPAKIYQNVEQLVKFYKGNGHRPSTLSCVNTPLRSFMSDSGSSVNGGVMRAVVKSPIMCHEKSPSVCSPLNMTSSVCSPAGINSVSSTTASFGSFPVHSPITQGTPLTCSPNVENRGSRSHSPAHASNVGSPLSSPLSSMKSSISSPPSHCSVKSPVSSPNNVTLRSSVSSPANINNSRCSVSSPSNTNNRSTLSSPAASTVGSICSPVNNAFSYTASGTSAGSSTLRDVVPSPDTQEKGAQEVPFPKTEEVESAISNGVTGQLNIVQYIKPEPDGAFSSSCLGGNSKINSDSSFSVPIKQESTKHSCSGTSFKGNPTVNPFPFMDGSYFSFMDDKDYYSLSGILGPPVPGFDGNCEGSGFPVGIKQEPDDGSYYPEASIPSSAIVGVNSGGQSFHYRIGAQGTISLSRSARDQSFQHLSSFPPVNTLVESWKSHGDLSSRRSDGYPVLEYIPENVSSSTLRSVSTGSSRPSKICLVCGDEASGCHYGVVTCGSCKVFFKRAVEGQHNYLCAGRNDCIIDKIRRKNCPACRLQKCLQAGMNLGARKSKKLGKLKGIHEEQPQQQQPPPPPPPPQSPEEGTTYIAPAKEPSVNTALVPQLSTISRALTPSPVMVLENIEPEIVYAGYDSSKPDTAENLLSTLNRLAGKQMIQVVKWAKVLPGFKNLPLEDQITLIQYSWMCLSSFALSWRSYKHTNSQFLYFAPDLVFNEEKMHQSAMYELCQGMHQISLQFVRLQLTFEEYTIMKVLLLLSTIPKDGLKSQAAFEEMRTNYIKELRKMVTKCPNNSGQSWQRFYQLTKLLDSMHDLVSDLLEFCFYTFRESHALKVEFPAMLVEIISDQLPKVESGNAKPLYFHRK
B3: PR: Progesterone Receptor (NR3C3), cDNA driver (protein, UniProt P06401 1-933, looked up)
Progesterone receptor: MTELKAKGPRAPHVAGGPPSPEVGSPLLCRPAAGPFPGSQTSDTLPEVSAIPISLDGLLFPRPCQGQDPSDEKTQDQQSLSDVEGAYSRAEATRGAGGSSSSPPEKDSGLLDSVLDTLLAPSGPGQSQPSPPACEVTSSWCLFGPELPEDPPAAPATQRVLSPLMSRSGCKVGDSSGTAAAHKVLPRGLSPARQLLLPASESPHWSGAPVKPSPQAAAVEVEEEDGSESEESAGPLLKGKPRALGGAAAGGGAAAVPPGAAAGGVALVPKEDSRFSAPRVALVEQDAPMAPGRSPLATTVMDFIHVPILPLNHALLAARTRQLLEDESYDGGAGAASAFAPPRSSPCASSTPVAVGDFPDCAYPPDAEPKDDAYPLYSDFQPPALKIKEEEEGAEASARSPRSYLVAGANPAAFPDFPLGPPPPLPPRATPSRPGEAAVTAAPASASVSSASSSGSTLECILYKAEGAPPQQGPFAPPPCKAPGASGCLLPRDGLPSTSASAAAAGAAPALYPALGLNGLPQLGYQAAVLKEGLPQVYPPYLNYLRPDSEASQSPQYSFESLPQKICLICGDEASGCHYGVLTCGSCKVFFKRAMEGQHNYLCAGRNDCIVDKIRRKNCPACRLRKCCQAGMVLGGRKFKKFNKVRVVRALDAVALPQPVGVPNESQALSQRFTFSPGQDIQLIPPLINLLMSIEPDVIYAGHDNTKPDTSSSLLTSLNQLGERQLLSVVKWSKSLPGFRNLHIDDQITLIQYSWMSLMVFGLGWRSYKHVSGQMLYFAPDLILNEQRMKESSFYSLCLTMWQIPQEFVKLQVSQEEFLCMKVLLLLNTIPLEGLRSQTQFEEMRSSYIRELIKAIGLRQKGVVSSSQRFYQLTKLLDNLHDLVKQLHLYCLNTFIQSRALSVEFPEMMSEVIAAQLPKILAGMVKPLLFHKK
B4: NR4a2: NR4a2 (NR4A2; NURR1), nuclear hormone receptor cDNA driver (protein, UniProt P43354 1-598, looked up)
Nuclear receptor subfamily 4 …: MPCVQAQYGSSPQGASPASQSYSYHSSGEYSSDFLTPEFVKFSMDLTNTEITATTSLPSFSTFMDNYSTGYDVKPPCLYQMPLSGQQSSIKVEDIQMHNYQQHSHLPPQSEEMMPHSGSVYYKPSSPPTPTTPGFQVQHSPMWDDPGSLHNFHQNYVATTHMIEQRKTPVSRLSLFSFKQSPPGTPVSSCQMRFDGPLHVPMNPEPAGSHHVVDGQTFAVPNPIRKPASMGFPGLQIGHASQLLDTQVPSPPSRGSPSNEGLCAVCGDNAACQHYGVRTCEGCKGFFKRTVQKNAKYVCLANKNCPVDKRRRNRCQYCRFQKCLAVGMVKEVVRTDSLKGRRGRLPSKPKSPQEPSPPSPPVSLISALVRAHVDSNPAMTSLDYSRFQANPDYQMSGDDTQHIQQFYDLLTGSMEIIRGWAEKIPGFADLPKADQDLLFESAFLELFVLRLAYRSNPVEGKLIFCNGVVLHRLQCVRGFGEWIDSIVEFSSNLQNMNIDISAFSCIAALAMVTERHGLKEPKRVEELQNKIVNCLKDHVTFNNGGLNRPNYLSKLLGKLPELRTLCTQGLQRIFYLKLEDLVPPPAIIDKLFLDTLPF

The molecules below were run on hPPARg1 promoter (assay: NHR-promoter luciferase screen, hPPARg1 promoter). Conditions: PPARG1 promoter; hormone receptor with or without its ligand.
Assay type: cell-based, human
Summary of the method: (§1)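 CV-1 cells were co-transfected with 50 ng NHR (homodimer or NHR/RXR heterodimer), 100 ng promoter-luciferase construct and 50 ng LacZ. Luciferase was normalized to LacZ and to a no-NHR/no-ligand control.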

Row | Molecule | Luc. act., normalized to lacZ
1 | B1 | 32.5
2 | B2 | 56.4
3 | B3 | 81.3
4 | B4 | 58.8

Same assay, conditions: PPARG1 promoter; hormone receptor with or without its ligand; relative to control

Row | Molecule | Normalized Luc. act., normalized to control
5 | B1 | 0.5
6 | B2 | 0.8
7 | B3 | 1.2
8 | B4 | 0.9

Same assay, conditions: Table 6d; luciferase activity relative to control (control = 1.00)

Row | Molecule | Results of assays of transcription factor (+/- ligand) with hPPARg1
9 | B1 | 0.47
10 | B2 | 0.82
11 | B3 | 1.18
12 | B4 | 0.85

The molecules below were run on hMyoD promoter (assay: NHR-promoter luciferase screen, hMyoD promoter). Conditions: MyoD promoter reporter; co-transfected HR, without or with its ligand.
Assay type: cell-based, human
Summary of the method: as §1

Row | Molecule | Luc. act., normalized to lacZ
13 | B1 | 35.6
14 | B2 | 37.1
15 | B3 | 70.4
16 | B4 | 51.9

Same assay, conditions: MyoD promoter reporter; co-transfected HR, without or with its ligand; relative to control

Row | Molecule | Normalized Luc. act., normalized to control
17 | B1 | 0.6
18 | B2 | 0.6
19 | B3 | 1.1
20 | B4 | 0.8

Same assay, conditions: hMyoD promoter-luciferase, CV-1 cells, NHR +/- ligand, control = 1.00

Row | Molecule | luciferase activity normalized to lacZ activity and to a control, hMyoD
21 | B1 | 0.56
22 | B2 | 0.59
23 | B3 | 1.11
24 | B4 | 0.82

These molecules were tested on MCP-1 promoter (assay: NHR-promoter luciferase screen, MCP-1 promoter). Conditions: MCP-1 promoter reporter; HR without or with its ligand; relative to control.
Assay type: cell-based
Summary of the method: as §1

Row | Molecule | Normalized Luc. act., normalized to control
25 | B1 | 1.6
26 | B2 | 0.0
27 | B3 | 1.2
28 | B4 | 0.6

Same assay, conditions: MCP-1 promoter reporter; hormone receptor (HR) without or with its ligand

Row | Molecule | Luc. act., normalized to lacZ
29 | B1 | 175.5
30 | B3 | 128.0
31 | B4 | 58.9

Same assay, conditions: transcription factor +/- ligand; control = 1.00

Row | Molecule | mMCP-1 promoter reporter activity
32 | B1 | 1.64
33 | B2 | 0.00
34 | B3 | 1.20
35 | B4 | 0.55

The molecules below were run on mPer1 promoter (assay: NHR-promoter luciferase screen, mPer1 promoter). Conditions: Per1 promoter reporter; co-transfected HR, with or without its ligand.
Assay type: cell-based, mouse
Summary of the method: as §1

Row | Molecule | Luc. act., normalized to lacZ
36 | B1 | 159.0
37 | B2 | 351.9
38 | B3 | 207.4
39 | B4 | 155.3

Same assay, conditions: Per1 promoter reporter; co-transfected HR, with or without its ligand; relative to control

Row | Molecule | Normalized Luc. act., normalized to control
40 | B1 | 1.1
41 | B2 | 2.4
42 | B3 | 1.4
43 | B4 | 1.1

Same assay, conditions: mPer1 promoter-luciferase, CV-1 cells, NHR +/- ligand, control = 1.00

Row | Molecule | luciferase activity normalized to lacZ activity and to a control, mPer1
44 | B1 | 1.10
45 | B2 | 2.44
46 | B3 | 1.44
47 | B4 | 1.08

Each molecule was assayed on mUCP2 promoter (assay: NHR-promoter luciferase screen, mUCP2 promoter). Conditions: mUCP2 promoter reporter; co-transfected HR, with or without its ligand.
Assay type: cell-based, mouse
Summary of the method: as §1

Row | Molecule | Luc. act., normalized to lacZ
48 | B1 | 54.4
49 | B2 | 58.8
50 | B3 | 178.8
51 | B4 | 129.8

Same assay, conditions: mUCP2 promoter reporter; co-transfected HR, with or without its ligand; relative to control

Row | Molecule | Normalized Luc. act., normalized to control
52 | B1 | 0.5
53 | B2 | 0.5
54 | B3 | 1.6
55 | B4 | 1.2

Same assay, conditions: mUCP2 promoter-luciferase, CV-1 cells, NHR +/- ligand, control = 1.00

Row | Molecule | luciferase activity normalized to lacZ activity and to a control, mUCP2
56 | B1 | 0.49
57 | B2 | 0.54
58 | B3 | 1.63
59 | B4 | 1.18

These molecules were tested on hCYP3A4 promoter (assay: NHR-promoter luciferase screen, hCYP3A4 promoter). Conditions: CYP3A4 promoter; HR/ligand component.
Assay type: cell-based, human
Summary of the method: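 Luciferase reporter read-out after co-expression in CV-1 cells of V5H6-tagged receptor (alone or with RXR), the promoter construct and LacZ. Values are luciferase/LacZ relative to a control lacking NHR or ligand; orphan receptors tested ligand-free.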

Row | Molecule | Luc. act., normalized to lacZ | Normalized Luc. act., normalized to control
60 | B1 | 6.1 | 1.4
61 | B2 | 2.6 | 0.6
62 | B3 | 6.5 | 1.5
63 | B4 | 3.5 | 0.8

Same assay, conditions: transcription factor +/- ligand; control = 1.00

Row | Molecule | hCYP3A4 promoter reporter activity
64 | B1 | 1.37
65 | B2 | 0.58
66 | B3 | 1.47
67 | B4 | 0.79
